Consider one substance from patent US6887474.

The assay addresses prostate specific membrane antigen (PSMA) (UniProt Q04609). Nature of the assay: flow cytometry on LnCAP prostate cancer cells. For orientation: In flow cytometry, cells or beads pass a laser one at a time.
Sequence of UniProt Q04609 (Q04609 whole entry): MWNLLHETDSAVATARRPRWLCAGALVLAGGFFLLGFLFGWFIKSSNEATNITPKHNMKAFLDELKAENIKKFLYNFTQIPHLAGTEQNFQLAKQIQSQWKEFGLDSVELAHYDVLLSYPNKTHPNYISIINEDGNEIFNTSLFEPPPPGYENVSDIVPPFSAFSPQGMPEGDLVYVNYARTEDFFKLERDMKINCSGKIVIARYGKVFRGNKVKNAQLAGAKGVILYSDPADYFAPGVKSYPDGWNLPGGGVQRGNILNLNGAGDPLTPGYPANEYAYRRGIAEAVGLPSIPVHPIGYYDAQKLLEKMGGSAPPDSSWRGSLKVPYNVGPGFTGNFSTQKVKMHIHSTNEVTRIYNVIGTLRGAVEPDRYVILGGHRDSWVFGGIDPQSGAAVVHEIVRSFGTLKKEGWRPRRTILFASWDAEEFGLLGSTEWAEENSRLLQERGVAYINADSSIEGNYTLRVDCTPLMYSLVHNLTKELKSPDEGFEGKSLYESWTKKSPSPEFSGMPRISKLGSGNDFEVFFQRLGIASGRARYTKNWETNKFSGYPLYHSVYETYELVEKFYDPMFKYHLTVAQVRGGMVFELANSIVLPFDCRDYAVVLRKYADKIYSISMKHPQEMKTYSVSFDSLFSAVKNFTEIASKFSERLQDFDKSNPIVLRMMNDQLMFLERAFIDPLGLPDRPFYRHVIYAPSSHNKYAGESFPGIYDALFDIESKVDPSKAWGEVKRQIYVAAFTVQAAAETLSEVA

Turning to “antibody 7E11 (ATCC #FB 10494) recognizing prostate specific membrane antigen”, the flow cytometry on LnCAP (% positive) stood at 58%.
